In PMC12018148:

Tests used:
[1] = molecular target: activated factor X (FXa) (human); test: kinetics of protease inhibition
[2] = molecular target: activated factor XI (FXIa) (human); test: kinetics of protease inhibition

activated factor X (FXa) (human), sequence (P00742 whole entry): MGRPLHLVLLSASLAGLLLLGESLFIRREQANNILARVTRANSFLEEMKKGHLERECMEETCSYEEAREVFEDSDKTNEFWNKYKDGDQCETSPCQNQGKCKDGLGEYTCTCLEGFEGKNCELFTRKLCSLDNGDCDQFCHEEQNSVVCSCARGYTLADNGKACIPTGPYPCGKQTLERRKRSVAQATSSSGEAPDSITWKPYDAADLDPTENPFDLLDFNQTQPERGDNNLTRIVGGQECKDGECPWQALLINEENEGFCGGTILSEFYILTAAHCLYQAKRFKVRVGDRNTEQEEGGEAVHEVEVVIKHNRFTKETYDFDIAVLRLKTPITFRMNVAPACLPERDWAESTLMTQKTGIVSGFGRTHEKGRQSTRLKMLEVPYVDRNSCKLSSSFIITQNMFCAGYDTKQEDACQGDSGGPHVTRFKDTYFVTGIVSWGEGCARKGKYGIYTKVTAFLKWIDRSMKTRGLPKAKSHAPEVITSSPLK

| ka with equimolar PZ and lipids, no FVa [1] [M⁻¹ s⁻¹] | ka with equimolar PZ, lipids and FVa [1] [M⁻¹ s⁻¹] | kon [1] [M⁻¹ s⁻¹] | Kd [2] [nM] | kon [2] [M⁻¹ s⁻¹] | Binder |
| --- | --- | --- | --- | --- | --- |
| 1.79e+06 | 296000 | 9200 | 2 | 86200 | protein Z-dependent protease inhibitor (ZPI), wild type, recombinant human (natural protein) LAPSPQSPETPAPQNQTSRVVQAPKEEEEDEQEASEEKASEEEKAWLMASRQQLAKETSNFGFSLLRKISMRHDGNMVFSPFGMSLAMTGLMLGATGPTETQIKRGLHLQALKPTKPGLLPSLFKGLRETLSRNLELGLTQGSFAFIHKDFDVKETFFNLSKRYFDTECVPMNFRNASQAKRLMNHYINKETRGKIPKLFDEINPETKLILVDYILFKGKWLTPFDPVFTEVDTFHLDKYKTIKVPMMYGAGKFASTFDKNFRCHVLKLPYQGNATMLVVLMEKMGDHLALEDYLTTDLVETWLRNMKTRNMEVFFPKFKLDQKYEMHELLRQMGIRRIFSPFADLSELSATGRNLQVSRVLQRTVIEVDERGTEAVAGILSEITAYSMPPVIKVDRPFHFMIYEETSGMLLFLGRVVNPTLL |
| 85000 | 6800 | 9500 | 2 | 112000 | D293A ZPI (protein Z-dependent protease inhibitor with Asp 293 mutated to Ala), recombinant human (natural protein) LAPSPQSPETPAPQNQTSRVVQAPKEEEEDEQEASEEKASEEEKAWLMASRQQLAKETSNFGFSLLRKISMRHDGNMVFSPFGMSLAMTGLMLGATGPTETQIKRGLHLQALKPTKPGLLPSLFKGLRETLSRNLELGLTQGSFAFIHKDFDVKETFFNLSKRYFDTECVPMNFRNASQAKRLMNHYINKETRGKIPKLFDEINPETKLILVDYILFKGKWLTPFDPVFTEVDTFHLDKYKTIKVPMMYGAGKFASTFDKNFRCHVLKLPYQGNATMLVVLMEKMGDHLALEAYLTTDLVETWLRNMKTRNMEVFFPKFKLDQKYEMHELLRQMGIRRIFSPFADLSELSATGRNLQVSRVLQRTVIEVDERGTEAVAGILSEITAYSMPPVIKVDRPFHFMIYEETSGMLLFLGRVVNPTLL |
| – | – | – | – | 2600 | D293A/Y387D ZPI (double mutant of the protein Z-dependent protease inhibitor; P1 residue Y387 changed) (natural protein) LAPSPQSPETPAPQNQTSRVVQAPKEEEEDEQEASEEKASEEEKAWLMASRQQLAKETSNFGFSLLRKISMRHDGNMVFSPFGMSLAMTGLMLGATGPTETQIKRGLHLQALKPTKPGLLPSLFKGLRETLSRNLELGLTQGSFAFIHKDFDVKETFFNLSKRYFDTECVPMNFRNASQAKRLMNHYINKETRGKIPKLFDEINPETKLILVDYILFKGKWLTPFDPVFTEVDTFHLDKYKTIKVPMMYGAGKFASTFDKNFRCHVLKLPYQGNATMLVVLMEKMGDHLALEAYLTTDLVETWLRNMKTRNMEVFFPKFKLDQKYEMHELLRQMGIRRIFSPFADLSELSATGRNLQVSRVLQRTVIEVDERGTEAVAGILSEITADSMPPVIKVDRPFHFMIYEETSGMLLFLGRVVNPTLL |
